Test results from the Human Domainome abundance scans (Beltran et al. 2025).
± gives the uncertainty stated by the source.

B1: Probable E3 ubiquitin-protein ligase MID2, residues 191 to 235; numbered along this chain, Q9UJV3 (parent)
chain: RGITCLDHENEKVNMYCVSDDQLICALCKLVGRHRDHQVASLNDR

Variants of: B1
Experiment: abundance fitness (aPCA) (normalised: wild type 0, dead -1); higher = more abundant; growth selection in yeast, the domain comes from the species named
Details: Homo sapiens

Variant	abundance fitness
H37S	-0.482 ± 0.091
V18S	0.027 ± 0.056
H8V	-0.809 ± 0.062
L6N	-0.22 ± 0.26
I24T	-0.122 ± 0.074
N14C	-0.204 ± 0.12
V13E	-0.215 ± 0.069
C5S	-0.448 ± 0.062
G2M	-0.081 ± 0.068
R35K	0.019 ± 0.083
R33I	-0.106 ± 0.11
V31E	0.149 ± 0.062
D21A	-0.081 ± 0.049
N10E	-0.55 ± 0.07
R35F	-0.529 ± 0.12
V31K	0.131 ± 0.09
C5N	-0.487 ± 0.082
D36T	-0.176 ± 0.13
N43D	-0.036 ± 0.12
R45L	-0.253 ± 0.088
R45E	0.276 ± 0.079
H34N	-0.474 ± 0.12
E9I	-0.128 ± 0.25
V18R	0.056 ± 0.048

Variant	abundance fitness
V18D	0.065 ± 0.065
E11Q	-0.097 ± 0.065
V18F	-0.112 ± 0.11
D36P	-0.311 ± 0.074
D44C	-0.452 ± 0.17
Q38V	0.005 ± 0.059
V39P	-0.249 ± 0.13
R33Q	-0.006 ± 0.08
M15K	-0.176 ± 0.12
D44Q	-0.234 ± 0.33
I3W	-0.229 ± 0.056
N14H	0.117 ± 0.096
A26Q	-0.017 ± 0.071
L6W	-0.253 ± 0.055
E9L	0.032 ± 0.051
S41G	-0.021 ± 0.055
H8Y	-0.831 ± 0.16
I3L	-0.167 ± 0.055
Y16A	0.077 ± 0.089
K12D	-0.012 ± 0.088
H8L	-0.703 ± 0.062
Q22L	-0.177 ± 0.063
Q22P	-0.381 ± 0.1
Y16W	-0.039 ± 0.071

Variant	abundance fitness
V39E	-0.143 ± 0.068
L27S	0.052 ± 0.068
C5V	-0.589 ± 0.064
Q38A	-0.113 ± 0.073
C5E	-0.307 ± 0.06
I3G	0.043 ± 0.042
M15W	0.11 ± 0.058
R33K	0.084 ± 0.061
H34S	-0.387 ± 0.1
C28K	-0.906 ± 0.14
G2A	-0.135 ± 0.054
D21Q	-0.132 ± 0.063
D20P	-0.625 ± 0.085
Y16H	-0.114 ± 0.2
L6M	0.072 ± 0.071
N10T	-0.26 ± 0.066
D20C	-0.178 ± 0.084
H37I	-1.04 ± 0.31
D20V	-1.03 ± 0.094
V31I	-0.091 ± 0.075
H34L	-1.13 ± 0.19
N14L	-0.124 ± 0.074
V39K	-0.449 ± 0.17
R35I	0.303 ± 0.22

Variant	abundance fitness
H34Y	-0.634 ± 0.29
N14S	0.06 ± 0.075
H37L	-0.584 ± 0.11
T4G	-0.217 ± 0.045
S19F	-0.146 ± 0.064
D7W	-0.294 ± 0.051
V31L	-0.122 ± 0.058
I3Q	-0.181 ± 0.054
L30T	0.089 ± 0.064
H8M	-0.588 ± 0.088
C17Y	-0.635 ± 0.3
Q38L	-0.259 ± 0.067
C25E	-0.786 ± 0.11
D21K	0.011 ± 0.078
S19T	0.049 ± 0.056
N10A	-0.348 ± 0.052
E9M	0.022 ± 0.062
L27H	-0.03 ± 0.22
C25D	-0.834 ± 0.11
T4D	-0.16 ± 0.1
D44T	-0.122 ± 0.11
A26M	-0.359 ± 0.12
S19A	0.107 ± 0.05
G2C	-0.511 ± 0.089

Variant	abundance fitness
K12L	-0.049 ± 0.069
T4N	-0.01 ± 0.11
A26F	-0.277 ± 0.26
G32R	-0.537 ± 0.092
E11T	-0.223 ± 0.073
L42N	0.045 ± 0.13
A26L	-0.296 ± 0.057
H37D	-0.274 ± 0.09
E9A	0.098 ± 0.046
K29W	0.018 ± 0.061
I24C	-0.436 ± 0.14
H34V	-0.558 ± 0.081
D36I	-0.34 ± 0.4
T4W	-0.219 ± 0.061
K29G	0.097 ± 0.052
R33Y	-0.088 ± 0.24
H37Y	-0.519 ± 0.12
A26G	0.103 ± 0.053
V31H	0.108 ± 0.1
D44E	0.003 ± 0.14
V39C	-0.014 ± 0.1
D7H	-0.015 ± 0.11
H8K	-0.533 ± 0.093
Y16G	0.024 ± 0.055

Variant	abundance fitness
K29M	-0.029 ± 0.17
K29D	-0.211 ± 0.13
K29L	-0.286 ± 0.092
N10S	-0.156 ± 0.055
D44S	-0.067 ± 0.074
R45T	-0.04 ± 0.1
L23E	0.137 ± 0.077
D20Y	-1.43 ± 0.25
S41Y	-0.502 ± 0.45
D44M	-0.187 ± 0.17
C5M	-0.462 ± 0.081
I24Q	-0.006 ± 0.22
L42V	-0.016 ± 0.052
L6T	0.14 ± 0.057
R45G	0.15 ± 0.067
A40T	-0.068 ± 0.12
D36H	-0.146 ± 0.28
L30D	0.183 ± 0.072
L23S	-0.009 ± 0.07
Q38G	-0.191 ± 0.052
Q38C	-0.152 ± 0.1
S41N	0.1 ± 0.35
T4H	-0.071 ± 0.077
C25V	-1.03 ± 0.1

Variant	abundance fitness
H34R	-0.459 ± 0.064
R1G	-0.04 ± 0.049
R35A	0.064 ± 0.053
V39Q	-0.081 ± 0.086
K12Q	-0.103 ± 0.082
G32T	-0.339 ± 0.091
C17T	-0.269 ± 0.072
K29S	0.059 ± 0.06
D36A	-0.293 ± 0.085
E9T	0.151 ± 0.065
D21P	-0.819 ± 0.11
N43Q	-0.043 ± 0.068
N43W	-0.405 ± 0.088
I24S	-0.179 ± 0.12
S41K	-0.102 ± 0.074
K12W	-0.229 ± 0.074
H34W	-0.997 ± 0.12
C17V	-0.486 ± 0.087
L30S	0.189 ± 0.073
E11I	-0.334 ± 0.081
C25R	-1.2 ± 0.12
L23R	0.023 ± 0.051
E11W	-0.215 ± 0.052
